Test results published in the supplement of paper PMC9170038.

Tested on: MS2 coat protein
Test: apparent KD of MS2 coat protein; higher = weaker reporter binding
Conditions: Eterna round: R107
Method: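 RNA-MaP round R107: designed RNA switches with theophylline, tryptophan, arginine or FMN aptamers are transcribed on-chip within common flanks. They are titrated with SNAP-549-labelled MS2 coat protein in RNA-MaP buffer (100 mM Tris pH 7.5, 80 mM KCl, 4 mM MgCl2), without ligand or with the indicated ligand. Median apparent KD per design.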

[1] = input ligand: theophylline 20 uM
[2] = input ligand: theophylline 2 mM
[3] = input ligand: tryptophan 2.4 mM

Sequence	apparent KD of MS2 coat protein (input ligand: arginine 13.2 mM) [nM]	apparent KD of MS2 coat protein (input ligand: none) [nM]	apparent KD of MS2 coat protein [1] [nM]	apparent KD of MS2 coat protein [2] [nM]	apparent KD of MS2 coat protein [3] [nM]
CGUCGAAACUGAAGGAGCGAGAUAACAACAUUGGGUCUCAACAUGAGGAUCACCCAUGUAUCUCAGGUAGGUCGCGGUGUCACCG [Exclusion Arginine B GF19]	176	202	267	429	217
CAAACAUGAGGAUCACCCAUGUAAUCAGAUACCAGUGACGAAAGUCACCCUUGGCAGCUGAGUACAUAUUGGCAGAGGUGUUUGA [EThA NP+V+V2 #7]	41.4	–	94.2	–	64.4
GGACUAACCAGAAGGAGCGACACGCAGAAACUGCUAAAUCCUCCGCACGAGGAUCACCCGUGUCAGGUAGGUCGCUGGUUAGUCG [ArgBX 28]	36.2	45.5	66.7	47.5	49.9
AUUCAUGAAAACAUGACAUAGGGAUCACUCCGAGGACCGGUACGGCCGCCACUCGCGAGGAGGCACAUGAGGAUCACCCAUGUUA [SS Tryp A #3]	36.8	115	146	180	108
ACGAUAGCACAAGAGGAUCACCCUUGUGAUACCAGCCUGGAAACAGGCCCUUGGCAGCACACAAAUAAAUUGUAACUAUCGAAUA [TheoAX5 #MicroSwitchBubble #AlternativeMS2]	22.5	23.6	43.9	112	29.3
ACAUGAGGAUCACCCAUGUUCCUCAUUGAUACCAGUGAAUUUAGACGCCCUUGGCAGCGAGUUUUUUUAUAAGUUUUUUUUUUUU [6.J]	276	–	913	–	874
AAUAAACAUGAGGAUCACCCAUGUAUGGAAGGAGCGGUAAAUAAACCAGGUAGGUCGCCAGUGUGAGGGUCAUCUAUGUAAUAAA [Exclusion - Arginine A (Freestyle 1)]	40.8	32	53.6	74.9	33.4
AACGUAUACAGAAGGAGCGUGAAAUAAGUAAAUUAAUAAUAAACAUGAGGAUCACCCAUGUCACAGGUAGGUCGCUGUAUUCGUA [JR_ExcArginiB_Sub017]	15.5	21.5	23.6	21.5	18.4
AACAUACAAUAAAAGGUGGAAAUAAGGCGGCGAGGACCGGUACGGCCGCCACUCGCGUACAUGAGGAUCACCCAUGUCUGAAACU [Same State - Tryptophan A (Freestyle 2)]	12.5	22.8	24.2	28.8	19.1
GGGUGGUAGGCGGCCGCCACUGAUUUUCAUAUAUAUAUAACAUGAGGAUCACCCAUGUAGAUAUGCAGGACCGGGCCUGUUGUUU [aaaL]	26.6	–	39.6	37.7	–
GGACUAACCAGAAGGAGCGGCACGCAGAAACUGCAAUUUCCUCCGCACGAGGAUCACCCGUGUCAGGUAGGUCGCUGGUUAGUCG	21.8	20.4	27.5	24.5	25.4
GGCGCGCGCCAACAUGAGGAUCACCCAUGUCGAGGACCGGUACGGCCGCCACUCGAACGAGUGAAGCGCGCGCGCGGGCGACCGC [Saa]	36.6	39.7	42.5	47.1	77.1
AAUUUGUCGGGUGAUACCAGCCUCGGCGCAUCUCGCGCUGAACAUGAGGAUCACCCAUGUGGCCCUUGGCAGCACAUGACAAAUC [Veerdira]	153	–	587	–	757
ACAUGAGGAUCACCCAUGUUAAACAGGGUGCGAGGACCGGUACGGCCGCCACUCGGACAUUAUUACGAGUGAAUGGUAACGAUGU [#13 Exclusion Tryptophan A]	21.1	–	33.6	26.5	–
ACCUGCGUUUGAUUCUAUCAGACGCAGGUUCGAGGACCGGUACGGCCGCCACUCGGACAUGAGGAUCACCCAUGUUUGACAUGGG [#04 Exclusion Tryptophan A]	134	–	281	1010	–
UUAGAUAUGACGGAUACCAGCGUGUUGUAGAACAUGAGGAUCACCCAUGUAGUGAUCGAGCGCCCUUGGCAGCUGGUAUGUUUGG [7.T]	175	–	203	–	335
UUAAAUGUGACGGAUACCAGCGUGUUGUAGAACAUGAGGAUCACCCAUGUAGUGAUCGAGCGCCCUUGGCAGCUGGUAUGUUUGA [7.Y]	102	–	365	–	270
